Results: US12139531B2, “Compositions and methods useful in promoting milk production” (The Regents of the University of California, priority 2019, dated 2024)
“Also recorded” adds a separate entry of the source.

What was measured:
NOTCH4 = assay: Cell fractionation and Western blot for HES1 and NOTCH4-ICD in HC11 cells; assay type: cell-based, mouse; details: HC11 cells treated during differentiation
Description: Notch receptor activation can be regulated through direct interactions with binding partners^24. […] To address this possibility, co-immunoprecipitation experiments were performed using MBA-MD-231 cells lysates, which express detectable levels of all four Notch receptors (NOTCH1-4). Endogenous ROBO1 co-immunoprecipitated with NOTCH4, but not […], NOTCH2 or NOTCH3 (FIG. 3H and data not shown). Next, the expression and subcellular localization of the NOTCH4 intracellular domain (N4-ICD) and HES1 was examined in control (Scr) and Robo1 (siR1) knockdown HC11 cells. Expression of Robo1 was inhibited in HC11 cells that were then primed for differentiation as described above. […] This effect was not observed in control Robo1 knockdown cells engineered to overexpress Robo1 (siR1+o/e) or cells treated with the γ-secretase inhibitor GSI (siR1+GSI) (FIGS. 3I-3K).
To examine the effects of ROBO1-ECD fragments on Notch signaling, HC11 cells were treated with ROBO1-ECD fragments and Notch effector expression assessed. […] In addition, HC11 cells were treated with ROBO-Ig5 during differentiation. These cells were then fractionated and a Western blot performed to detect HES1 and NOTCH4-ICD (FIG. 8B).
(§1) Protein lysates were prepared by directly lysing adherent cells in 1× sample buffer supplemented with 5% beta-mercaptoethanol and boiled for 5 minutes. Protein lysate was resolved by SDS-PAGE and transferred to a PVDF for 90 minutes at 400 mA or overnight at 30 mA. Primary antibodies were used at the concentration indicated in Table 1 and incubated overnight at 4° C. HRP conjugated secondary antibodies (Jackson Labs) were used at 1:3000 and incubated for 45 minutes at room temp. All proteins were detected using Clarity ECL (BioRad) using a BioRad Chemi-Doc MP Imager and quantified using ImageLab software as previously described a.

mammary gland = assay: Subcutaneous injection into ovariectomized, hormone-treated mice; carmine-stained mammary gland branching; assay type: in vivo; details: 14 days, ovariectomized animals given E, P, Prl
Description: The influence of ROBO1 ECD fragments in vitro on primary alveolar progenitor cell growth and in vivo on branching morphogenesis was tested. FACS-purified murine and bovine alveolar progenitor cells (AVPs) were plated as single cells in Matrigel and grown for 10 days in the absence and presence of ROBO1-ECDs fragments (FIGS. 9A, B). […] ROBO1-Ig5 fragments were also tested in vivo by subcutaneously injecting them (7.5 mammary gland/kg/day) into ovariectomized animals that were orally administered hormones in Nutella: estrogen (E, 1 μg/day), progesterone (P, 1 mg/day mammary gland/day) and prolactin (Prl, 0.2 mg/day mammary gland/day) (FIG. 9C). The mammary glands were harvested after 14 days of ROBO1-Ig5 fragment treatment, carmine stained and evaluated. […] Other aspects can involve ROBO1-ECD constructs that are tagged with the murine-Fc sequence. This tag is recognized by an endogenous receptor that facilitates transport into tissues 4. Mouse mammary glands were surgically dissected, spread onto a glass slide, and fixed in Carnoy's solution (25% glacial acetic acid and 75% ethanol). […] C57BL mice (8-10 weeks old) were bilaterally ovariectomized and allowed to recover for 1 week^47. During the recovery, mice were trained with oral administration Nuttella. Mice were fed Nutella mixed with 17beta-estradiol (E, 1 μg, Sigma)+progesterone (P, 1 mg, Sigma) for three weeks (daily). For ROBO1-Ig5 ECD, prolactin (Prl, 200 μg, NHPP) was given by Nutella oral administration over one week (daily), starting after 1 week E+P. For ROBO2 mAb, prolactin (Prl, 50 μg) was injected by intraperitoneal injection over 2.5 weeks (daily), starting after 1 week E+P. ROBO1-Ig5 ECD was injected subcutaneously (7.5 mg/kg ROBO1-Ig5 ECD or PBS; daily) over the 2 weeks period, starting after 1 week of E+P. ROBO2 mAbs or IgG isotype control mAbs ([…]) were injected subcutaneously twice/week over 17 days, starting after 1 week of E+P^48.

HC11 cells = assay: Western blot analysis of WAP and PLIN2 in HC11 cells; assay type: cell-based, mouse; details: ECD titration
Description: To determine whether the promotion of dome formation also results in higher milk production, HC11 cells were differentiated in the presence or absence of ROBO1-ECD fragments that were added to cells simultaneously with DIP media. Cells were harvested and the expression of WAP and Lalba assessed by RT-qPCR. […] WAP expression levels were not increased in cells treated with DCC-Ig4 (FIG. 7K). Next, Western blot analysis of WAP and PLIN2 was performed on cells treated with ROBO1-Ig5 and ROBO1-Ecto.
as §1

[1] = Western blot of TCA-precipitated media for intact ROBO1-Ig5; assay type: physicochemical; details: after 6 days in media, absence and presence of heparin (300 ng/ml)
Source text: Three recombinant ROBO1 ECD constructs were constructed: one comprising two immunoglobulin (Ig) domains (ROBO1-Ig2), another comprising all five Ig domains (ROBO1-Ig5), and another comprising the entire extracellular domain (ROBO1-Ecto) (FIG. 6A). In other constructs, HA (hemagglutinin), Myc, and human and mouse immunoglobulin Fc were fused to the Robo1 ECDs (FIG. 6A, 5F right). Extracellular domains of Deleted in Colorectal Cancer (DCC), a structurally similar Ig superfamily member to ROBO1, comprising either two Ig (DCC-Ig2) or four Ig (DCC-Ig4) domains and tagged with HA were constructed for use as negative controls (FIG. 6A, 5F right). Expression secretion of the constructs was confirmed by overexpressing the constructs in HEK293 cells and performing Western blots on cell lysates and media (FIG. 6B). […] Robo1-Ig5 as used herein was expressed in HEK-293 cells in the absence and presence of heparin (300 ng/ml). Media were collected from these ROBO1-Ig5 overexpressing cells on days two, four and six following plasmid transfection. Dot blot dilution assays of the collected media were performed to evaluate the relative secretion of this soluble ROBO1 ECD (FIG. 6C).
Add 1 volume of TCA stock to 4 volumes of protein sample. Incubate 10 min at 4° C. Spin tube in microcentrifuge at 14K rpm, 5 min. Remove supernatant, leaving protein pellet intact Wash pellet with 200 μl cold acetone. […]

B1: ROBO1-Ig5: recombinant soluble ROBO1 ECD construct comprising all five Ig domains (protein)
chain: SRLRQEDFPPRIVEHPSDLIVSKGEPATLNCKAEGRPTPTIEWYKGGERVETDKDDPRSHRMLLPSGSLFFLRIVHGRKSRPDEGVYICVARNYLGEAVSHNASLEVAILRDDFRQNPSDVMVAVGEPAVMECQPPRGHPEPTISWKKDGSPLDDKDERITIRGGKLMITYTRKSDAGKYVCVGTNMVGERESEVAELTVLERPSFVKRPSNLAVTVDDSAEFKCEARGDPVPTVRWRKDDGELPKSRYEIRDDHTLKIRKVTAGDMGSYTCVAENMVGKAEASATLTVQEPPHFVVKPRDQVVALGRTVTFQCEATGNPQPAIFWRREGSQNLLFSYQPPQSSSRFSVSQTGDLTVTNVQRSDVGYYICQTLNVAGSIITKAYLEVTDVIADRPPPVIRQGPVNQTVAVDGTLTLSCVATGSPVPTILWRKDGVLVSTQDSRIKQLESGVLQIRYAKLGDTGRYTCTASTPSGEATWSAYIEVQEF
NOTCH4-ICD in the cytoplasmic fraction (NOTCH4): lower; also recorded: reduced | HES1 protein in the nuclear fraction (NOTCH4; relative to control treatment): lower levels; also recorded: decreased | NOTCH4-ICD (N4-ICD) protein in the nuclear fraction (NOTCH4; relative to control treatment): lower levels; also recorded: decreased | mammary gland area (size) (mammary gland): significantly greater area | number of primary (1°) branches (mammary gland): higher number | overall branching density (mammary gland): not different from that of controls; also recorded: no increase | secondary (2°) and tertiary (3°) branching (mammary gland): More and Increased | mammary gland area (size) (mammary gland; listed as ROBO1-Ig-5): Increased | number of primary (1°) branches (mammary gland; listed as ROBO1-Ig-5): Increased | PLIN2 protein expression (HC11 cells): approximately two-fold; also recorded: increased | WAP protein expression (HC11 cells): approximately two-fold; also recorded: increased | integrity of ROBO1-Ig5 protein in media [1]: intact; also recorded: no protein degradation
